This note sets out measurements from the supplement of paper PMC5998384.

Series [1] concerns HeLa Kyoto. The series can be described thus: thermal stability score vs G1/S (z-score of summed log2 fold changes over temperatures); higher = more thermally stable than in G1/S.
The subject of series [2] is HeLa Kyoto. Briefly: solubility change mitosis vs G1/S (difference of NP-40 vs SDS log2 ratios) (log2 ratio difference); higher = more soluble in mitosis.
In series [3] the test system is HeLa Kyoto. Briefly: solubility in G1/S (NP-40 vs SDS abundance) (log2 ratio); higher = more soluble. Particulars: cell cycle stage: G1/S.
For series [4], the system named is HeLa Kyoto. Briefly: melting temperature (median over replicates), in situ; higher = more thermally stable.
The mark [5] stands for this setting: cell cycle stage: early G1 (4.5 h after nocodazole release).
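Throughout, for melting temperature (median over replicates), in situ: HeLa Kyoto cells synchronized by double thymidine or nocodazole block, proteins quantified by TMT10plex mass spectrometry, three independent biological replicates.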
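Throughout, for solubility change mitosis vs G1/S (difference of NP-40 vs SDS log2 ratios): synchronized HeLa Kyoto cells (double thymidine block for G1/S, nocodazole release for mitosis), protein amounts in NP-40 versus SDS lysates quantified by mass spectrometry, three biological replicates.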
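Throughout, for solubility in G1/S (NP-40 vs SDS abundance): HeLa Kyoto cells arrested at G1/S by double thymidine block, proteins quantified by TMT10plex mass spectrometry in mild NP-40 versus SDS extracts, three biological replicates.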
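Throughout, for thermal stability score vs G1/S (z-score of summed log2 fold changes over temperatures): synchronized HeLa Kyoto cells, proteins quantified by TMT10plex mass spectrometry, three biological replicates, mitosis taken 0.5 h after nocodazole release, G1/S directly after double thymidine block.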

On to “MAESIIIRVQSPDGVKRITATKRETAATFLKKVAKEFGFQNNGFSVYINRNKTGEITASSNKSLNLLKIKHGDLLFLFPSSLAGPSSEMETSVPPGFKVFGAPNVVEDEIDQYLSKQDGKIYRSRDPQLCRHGPLGKCVHCVPLEPFDEDYLNHLEPPVKHMSFHAYIRKLTGGADKGKFVALENISCKIKSGCEGHLPWPNGICTKCQPSAITLNRQKYRHVDNIMFENHTVADRFLDFWRKTGNQHFGYLYGRYTEHKDIPLGIRAEVAAIYEPPQIGTQNSLELLEDPKAEVVDEIAAKLGLRKVGWIFTDLVSEDTRKGTVRYSRNKDTYFLSSEECITAGDFQNKHPNMCRLSPDGHFGSKFVTAVATGGPDNQVHFEGYQVSNQCMALVRDECLLPCKDAPELGYAKESSSEQYVPDVFYKDVDKFGNEITQLARPLPVEYLIIDITTTFPKDPVYTFSISQNPFPIENRDVLGETQDFHSLATYLSQNTSSVFLDTISDFHLLLFLVTNEVMPLQDSISLLLEAVRTRNEELAQTWKRSEQWATIEQLCSTVGGQLPGLHEYGAVGGSTHTATAAMWACQHCTFMNQPGTGHCEMCSLPRT [NPLOC4]”, for which the thermal stability score in series [1] (setting [5]) was 0.478; in series [1] (cell cycle stage: mitosis), -0.273. Also, the “solubility change mitosis (log2)” value in series [2] is -0.119. Further, in series [3], the “solubility in G1/S (log2)” value is -0.00908. Besides, the melting temperature in series [4] (cell cycle stage: G1/S) turned out to be 51.8 °C; in series [4] (cell cycle stage: mitosis) it was 52 °C.
Consider “MAETEALSKLREDFRMQNKSVFILGASGETGRVLLKEILEQGLFSKVTLIGRRKLTFDEEAYKNVNQEVVDFEKLDDYASAFQGHDVGFCCLGTTRGKAGAEGFVRVDRDYVLKSAELAKAGGCKHFNLLSSKGADKSSNFLYLQVKGEVEAKVEELKFDRYSVFRPGVLLCDRQESRPGEWLVRKFFGSLPDSWASGHSVPVVTVVRAMLNNVVRPRDKQMELLENKAIHDLGKAHGSLKP [HTATIP2]”, for which the thermal stability score came to 2.61 in series [1] (setting [5]) and 4.75 in series [1] (cell cycle stage: mitosis). For the same sequence, the “solubility change mitosis (log2)” value in series [2] is -0.095. For the same sequence, the “solubility in G1/S (log2)” value in series [3] is 0.148. Further, the melting temperature was determined as 50.8 °C in series [4] (cell cycle stage: G1/S) and 50.2 °C in series [4] (cell cycle stage: mitosis).
For “MAEVGEDSGARALLALRSAPCSPVLCAAAAAAAFPAAAPPPAPAQPQPPPGPPPPPPPPLPPGAIAGAGSSGGSSGVSGDSAVAGAAPALVAAAAASVRQSPGPALARLEGREFEFLMRQPSVTIGRNSSQGSVDLSMGLSSFISRRHLQLSFQEPHFYLRCLGKNGVFVDGAFQRRGAPALQLPKQCTFRFPSTAIKIQFTSLYHKEEAPASPLRPLYPQISPLKIHIPEPDLRSMVSPVPSPTGTISVPNSCPASPRGAGSSSYRFVQNVTSDLQLAAEFAAKAASEQQADTSGGDSPKDESKPPFSYAQLIVQAISSAQDRQLTLSGIYAHITKHYPYYRTADKGWQNSIRHNLSLNRYFIKVPRSQEEPGKGSFWRIDPASEAKLVEQAFRKRRQRGVSCFRTPFGPLSSRSAPASPTHPGLMSPRSGGLQTPECLSREGSPIPHDPEFGSKLASVPEYRYSQSAPGSPVSAQPVIMAVPPRPSSLVAKPVAYMPASIVTSQQPAGHAIHVVQQAPTVTMVRVVTTSANSANGYILTSQGAAGGSHDAAGAAVLDLGSEARGLEEKPTIAFATIPAAGGVIQTVASQMAPGVPGHTVTILQPATPVTLGQHHLPVRAVTQNGKHAVPTNSLAGNAYALTSPLQLLATQASSSAPVVVTRVCEVGPKEPAAAVAATATTTPATATTASASASSTGEPEVKRSRVEEPSGAVTTPAGVIAAAGPQGPGTGE [FOXK1]”, the results for the thermal stability score in series [1] (setting [5]) and in series [1] (cell cycle stage: mitosis) were 2.52 and 2.09, respectively. Also, the “solubility change mitosis (log2)” value in series [2] was -0.0982. Further, the “solubility in G1/S (log2)” value in series [3] was 0.588. For the same sequence, the figures for the melting temperature in series [4] (cell cycle stage: G1/S) and in series [4] (cell cycle stage: mitosis) were 49.1 °C and 51 °C, respectively.
With “MAEVSIDQSKLPGVKEVCRDFAVLEDHTLAHSLQEQEIEHHLASNVQRNRLVQHDLQVAKQLQEEDLKAQAQLQKRYKDLEQQDCEIAQEIQEKLAIEAERRRIQEKKDEDIARLLQEKELQEEKKRKKHFPEFPATRAYADSYYYEDGGMKPRVMKEAVSTPSRMAHRDQEWYDAEIARKLQEEELLATQVDMRAAQVAQDEEIARLLMAEEKKAYKKAKEREKSSLDKRKQDPEWKPKTAKAANSKSKESDEPHHSKNERPARPPPPIMTDGEDADYTHFTNQQSSTRHFSKSESSHKGFHYKH [CCDC50]”, the thermal stability score in series [1] (setting [5]) was -5.07; in series [1] (cell cycle stage: mitosis) it was -1.65. In series [2], the “solubility change mitosis (log2)” value was 0.182. Besides, the “solubility in G1/S (log2)” value in series [3] came out at 0.334. The results for the melting temperature in series [4] (cell cycle stage: G1/S) and in series [4] (cell cycle stage: mitosis) were 57.7 °C and 55 °C, respectively.
For the sequence “MAFLRSMWGVLSALGRSGAELCTGCGSRLRSPFSFVYLPRWFSSVLASCPKKPVSSYLRFSKEQLPIFKAQNPDAKTTELIRRIAQRWRELPDSKKKIYQDAYRAEWQVYKEEISRFKEQLTPSQIMSLEKEIMDKHLKRKAMTKKKELTLLGKPKRPRSAYNVYVAERFQEAKGDSPQEKLKTVKENWKNLSDSEKELYIQHAKEDETRYHNEMKSWEEQMIEVGRKDLLRRTIKKQRKYGAEEC [TFAM]”, the thermal stability score in series [1] (setting [5]) was -1.96; in series [1] (cell cycle stage: mitosis), -1.16. Moreover, the “solubility change mitosis (log2)” value in series [2] amounted to 0.546. For the same sequence, the “solubility in G1/S (log2)” value in series [3] turned out to be 0.578. In addition, the melting temperature in series [4] (cell cycle stage: G1/S) turned out to be 53.1 °C; in series [4] (cell cycle stage: mitosis), 53 °C.
Turning to “MAFRQALQLAACGLAGGSAAVLFSAVAVGKPRAGGDAEPRPAEPPAWAGGARPGPGVWDPNWDRREPLSLINVRKRNVESGEEELASKLDHYKAKATRHIFLIRHSQYHVDGSLEKDRTLTPLGREQAELTGLRLASLGLKFNKIVHSSMTRAIETTDIISRHLPGVCKVSTDLLREGAPIEPDPPVSHWKPEAVQYYEDGARIEAAFRNYIHRADARQEEDSYEIFICHANVIRYIVCRALQFPPEGWLRLSLNNGSITHLVIRPNGRVALRTLGDTGFMPPDKITRS [PGAM5]”, the results for the thermal stability score in series [1] (setting [5]) and in series [1] (cell cycle stage: mitosis) were 1.94 and -3.72, respectively. For the same sequence, the “solubility change mitosis (log2)” value in series [2] was 0.121. In series [3], the “solubility in G1/S (log2)” value was -0.0731. Also, the melting temperature in series [4] (cell cycle stage: G1/S) came to 52.8 °C; in series [4] (cell cycle stage: mitosis) it was 52.2 °C.
Take “MAFVTRQFMRSVSSSSTASASAKKIIVKHVTVIGGGLMGAGIAQVAAATGHTVVLVDQTEDILAKSKKGIEESLRKVAKKKFAENLKAGDEFVEKTLSTIATSTDAASVVHSTDLVVEAIVENLKVKNELFKRLDKFAAEHTIFASNTSSLQITSIANATTRQDRFAGLHFFNPVPVMKLVEVIKTPMTSQKTFESLVDFSKALGKHPVSCKDTPGFIVNRLLVPYLMEAIRLYERGDASKEDIDTAMKLGAGYPMGPFELLDYVGLDTTKFIVDGWHEMDAENPLHQPSPSLNKLVAENKFGKKTGEGFYKYK [HADH]”: the thermal stability score in series [1] (setting [5]) was -2.07; in series [1] (cell cycle stage: mitosis) it was -1.2. In addition, the “solubility change mitosis (log2)” value in series [2] came out at 0.00527. Further, the “solubility in G1/S (log2)” value in series [3] was 0.267. The figures for the melting temperature in series [4] (cell cycle stage: G1/S) and in series [4] (cell cycle stage: mitosis) were 53.4 °C and 53.7 °C, respectively.
